Source: patent publication US20040091887

T1: bovine fibrinogen, P02672
T1 chain 1: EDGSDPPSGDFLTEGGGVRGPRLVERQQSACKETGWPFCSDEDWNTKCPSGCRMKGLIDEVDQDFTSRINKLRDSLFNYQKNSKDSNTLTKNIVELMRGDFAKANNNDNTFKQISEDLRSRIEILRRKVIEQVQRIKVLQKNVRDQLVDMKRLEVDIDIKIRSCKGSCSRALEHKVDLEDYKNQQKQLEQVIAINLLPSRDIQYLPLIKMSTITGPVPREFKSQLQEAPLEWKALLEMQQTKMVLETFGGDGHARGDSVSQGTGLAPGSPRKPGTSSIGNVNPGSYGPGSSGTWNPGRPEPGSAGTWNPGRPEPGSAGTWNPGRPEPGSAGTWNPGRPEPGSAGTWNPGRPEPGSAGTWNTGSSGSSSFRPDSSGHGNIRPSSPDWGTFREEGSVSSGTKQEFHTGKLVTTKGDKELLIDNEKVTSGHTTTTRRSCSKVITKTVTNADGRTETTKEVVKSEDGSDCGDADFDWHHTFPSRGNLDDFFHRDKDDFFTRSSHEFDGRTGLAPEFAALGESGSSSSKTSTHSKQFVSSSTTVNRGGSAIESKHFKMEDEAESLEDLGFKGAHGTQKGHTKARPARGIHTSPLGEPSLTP
T1 chain 2: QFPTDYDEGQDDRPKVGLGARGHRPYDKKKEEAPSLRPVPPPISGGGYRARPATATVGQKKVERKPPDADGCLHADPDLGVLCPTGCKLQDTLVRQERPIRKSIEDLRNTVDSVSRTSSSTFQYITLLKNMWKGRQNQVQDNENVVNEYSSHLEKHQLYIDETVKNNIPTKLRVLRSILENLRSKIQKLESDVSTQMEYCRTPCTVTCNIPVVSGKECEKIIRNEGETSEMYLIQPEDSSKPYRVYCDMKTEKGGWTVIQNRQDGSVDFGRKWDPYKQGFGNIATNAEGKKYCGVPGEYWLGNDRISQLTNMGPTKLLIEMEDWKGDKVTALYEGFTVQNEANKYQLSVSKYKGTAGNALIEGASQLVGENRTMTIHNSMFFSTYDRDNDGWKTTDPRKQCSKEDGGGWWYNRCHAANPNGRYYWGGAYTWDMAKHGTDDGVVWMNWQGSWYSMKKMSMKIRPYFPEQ
T1 chain 3: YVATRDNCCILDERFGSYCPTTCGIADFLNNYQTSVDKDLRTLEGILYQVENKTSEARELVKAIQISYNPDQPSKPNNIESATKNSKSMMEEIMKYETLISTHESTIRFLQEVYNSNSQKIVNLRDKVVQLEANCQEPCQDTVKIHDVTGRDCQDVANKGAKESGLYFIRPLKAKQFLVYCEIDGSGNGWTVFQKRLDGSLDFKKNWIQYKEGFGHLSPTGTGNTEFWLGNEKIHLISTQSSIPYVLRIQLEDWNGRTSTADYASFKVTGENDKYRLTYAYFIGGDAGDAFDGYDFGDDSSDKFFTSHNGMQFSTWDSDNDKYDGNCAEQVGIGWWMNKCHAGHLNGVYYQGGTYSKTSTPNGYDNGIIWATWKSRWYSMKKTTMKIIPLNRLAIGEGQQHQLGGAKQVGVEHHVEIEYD

B1: recombinant fibrinlysin protein (protein)
chain: EQQRFPQRYIKLAIVVDHGMYTKYSSNFKKIRKRVHQMVSNINEMCRPLNIAITLALLDVWSEKDFITVQADAPTTAGLFGDWRERVLLKKKNHDHAQLLTDTNFARNTIGWAYVGRMCDEKYSVAVVKDHSSKVFMVAVTMTHELGHNLGMEHDDKDKCKCDTCIMSAVISDKQSKLFSDCSKDYYQTFLTNDNPQCILNAP
B2: Mucroslysin recombinant fusion protein (protein)
chain: SSIILESGNVNDYEVVYPRKVSALPKGAVQPKYEDAMQYEFKVNGEAVVLHLEKNKGLFSEDYSETHYSPDGREITTYPSVEDHCYYHGRIHNDADSTASISACDGLKGYFKLQGETYPIEPLELSDSEAHAVFKYENVEKEDEAPKMCGVTQNWESDESIKKASQLYLTPEQQRFPQRYIKLAIVVDHGMYTKYSSNFKKIRKRVHQMVSNINEMCRPLNIAITLALLDVWSEKDFITVQADAPTTAGLFGDWRERVLLKKKNHDHAQLLTDTNFARNTIGWAYVGRMCDEKYSVAVVKDHSSKVFMVAVTMTHELGHNLGMEHDDKDKCKCDTCIMSAVISDKQSKLFSDCSKDYYQTFLTNDNPQCILNAPLRTDTVSTPVSGNEFLEAGEECDCGSPENPCCDAATCKLRPGAQCAEGLCCDQCRFKKKRTICRRARGDNPDDRCTGQSADCPRNGLYG

Target: T1, bovine fibrinogen, P02672

Row | Protein | dose-dependent fibrinogenolytic assay in vitro: amount for complete digestion of the A alpha chain | dose-dependent fibrinogenolytic assay in vitro: amount for complete digestion of the B beta chain | dose-dependent fibrinogenolytic assay in vitro: amount for complete digestion of the gamma chain | time-dependent fibrinogenolytic assay in vitro: time to complete digestion of the A alpha chain | time-dependent fibrinogenolytic assay in vitro: time to complete digestion of the B beta chain | time-dependent fibrinogenolytic assay in vitro: time to complete digestion of the gamma chain | fibrinogenolytic assay, cleavage pattern on 10% SDS-PAGE: cleavage of the gamma chain | fibrinogenolytic assay, cleavage pattern on 10% SDS-PAGE: start of digestion of the B beta chain | fibrinogenolytic assay, cleavage pattern on 10% SDS-PAGE: time to complete digestion of the A alpha chain | fibrinogenolytic assay, cleavage pattern on 10% SDS-PAGE: time to complete digestion of the B beta chain
1 | B1 | the Aα-chain of fibrinogen was completely digested with 4 µg of the refolded protein | The Bβ-chain was completely digested with 7 µg of the refolded protein | The γ-chain also was completely digested with 21 µg of the refolded protein | the Aα-chain of fibrinogen was completely digested at 5 hr after incubation | The Bβ-chain was completely digested after 7 hrs | the γ-chain was completely digested after 30 hrs | – | – | – | –
2 | B2 | – | – | – | – | – | – | Mucroslysin protein also exhibited the ability to cleave the γ-chain of fibrinogen | the digestion of the Bβ-chain began at 18 hr | The Aα-chain of fibrinogen was completely digested at 18 hr after incubation | The Bβ-chain was completely digested after 36 hrs
